Targets include MAGI2_2, Q86UL8; FRMPD3, Q5JV73; SCRIB_1, Q14160; DLG4_2, P78352; GRASP, Q7Z6J2; PDLIM1, O00151; DLG1_2, Q12959; LDB3, O75112; PARD3_3, Q8TEW0; GRIP2_7, Q9C0E4.
What all share (assay): holdup assay
What all share (design): key: below the threshold = too weak to quantify, mostly under pKd 3.1 to 4

Another test has as its target T1, TIAM2, Q8IVF5.
T1 sequence (Q8IVF5 885-986, limits assumed, looked up): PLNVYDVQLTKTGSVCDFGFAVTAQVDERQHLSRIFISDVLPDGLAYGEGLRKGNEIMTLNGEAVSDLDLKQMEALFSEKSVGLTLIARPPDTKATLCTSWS

Another test addresses T2, PDZD7_3, Q9H5P4.
T2 sequence (Q9H5P4 857-944, limits assumed, looked up): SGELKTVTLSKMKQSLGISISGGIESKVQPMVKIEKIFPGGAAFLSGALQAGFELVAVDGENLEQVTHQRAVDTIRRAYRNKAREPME

For a further test, the target named is T3, HTRA3, P83110.
T3 sequence (P83110 354-453, limits assumed, looked up): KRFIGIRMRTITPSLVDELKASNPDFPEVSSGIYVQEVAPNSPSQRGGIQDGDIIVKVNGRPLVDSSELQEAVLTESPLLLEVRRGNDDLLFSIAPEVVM

In another test the target is T4, APBA1_1, Q02410.
T4 sequence (Q02410 651-752, limits assumed, looked up): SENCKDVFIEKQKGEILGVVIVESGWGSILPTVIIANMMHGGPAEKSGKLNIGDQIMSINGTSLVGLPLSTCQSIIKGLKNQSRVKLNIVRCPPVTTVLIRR

For a further test, the target named is T5, CARD11, Q9BXL7.
T5 sequence (Q9BXL7 662-765, limits assumed, looked up): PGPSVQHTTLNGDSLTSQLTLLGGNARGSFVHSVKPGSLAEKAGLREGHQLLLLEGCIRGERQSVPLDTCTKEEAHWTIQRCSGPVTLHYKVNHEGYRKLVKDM

The next test deals with T6, DFNB31_3, Q9P202.
T6 sequence (Q9P202 811-907, limits assumed, looked up): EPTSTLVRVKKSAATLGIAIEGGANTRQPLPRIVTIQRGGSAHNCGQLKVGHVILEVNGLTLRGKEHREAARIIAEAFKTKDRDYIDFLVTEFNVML

The target in another test is T7, DFNB31_2, Q9P202.
T7 sequence (Q9P202 274-371, limits assumed, looked up): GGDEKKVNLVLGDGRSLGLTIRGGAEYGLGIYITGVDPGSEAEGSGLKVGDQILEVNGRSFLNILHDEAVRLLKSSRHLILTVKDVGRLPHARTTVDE

A further test has as its target T8, DVL3, Q92997.
T8 sequence (Q92997 244-331, limits assumed, looked up): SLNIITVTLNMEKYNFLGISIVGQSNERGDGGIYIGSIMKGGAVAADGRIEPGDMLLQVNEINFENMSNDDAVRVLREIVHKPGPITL

A further test deals with T9, SNTA1, Q13424.
T9 sequence (Q13424 82-180, limits assumed, looked up): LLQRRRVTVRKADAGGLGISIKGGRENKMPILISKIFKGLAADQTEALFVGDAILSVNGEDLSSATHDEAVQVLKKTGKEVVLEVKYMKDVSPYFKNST

The target of a further test is T10, LIN7B, Q9HAP6.
T10 sequence (Q9HAP6 88-185, limits assumed, looked up): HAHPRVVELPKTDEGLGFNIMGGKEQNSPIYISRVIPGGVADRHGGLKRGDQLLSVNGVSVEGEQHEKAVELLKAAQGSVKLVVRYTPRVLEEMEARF

The next test concerns the target T11, DFNB31_1, Q9P202.
T11 sequence (Q9P202 135-233, limits assumed, looked up): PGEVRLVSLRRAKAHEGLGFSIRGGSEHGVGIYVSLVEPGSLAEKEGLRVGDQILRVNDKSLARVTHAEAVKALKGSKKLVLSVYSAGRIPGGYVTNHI

A further test deals with T12, GRIP1_4, Q9Y3R0.
T12 sequence (Q9Y3R0 467-571, limits assumed, looked up): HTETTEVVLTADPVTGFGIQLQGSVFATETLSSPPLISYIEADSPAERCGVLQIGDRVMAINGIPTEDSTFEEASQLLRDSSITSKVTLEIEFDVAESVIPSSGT

The target of a further test is T13, LIN7A, O14910.
T13 sequence (O14910 103-200, limits assumed, looked up): T10 sequence (Q9HAP6 88-185, limits assumed, looked up) with A2S, I20V, V35I, D42E, Q65H, Q77K, G78D, R89K

Another test addresses T14, PTPN13_1, Q12923.
T14 sequence (Q12923 1088-1188, limits assumed, looked up): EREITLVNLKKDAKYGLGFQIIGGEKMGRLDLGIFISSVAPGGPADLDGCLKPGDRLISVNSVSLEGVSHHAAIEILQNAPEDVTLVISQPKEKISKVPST

Where [1] appears, read: modified: phospho on T at position -2 from the C-terminal residue.
[2] abbreviates: plain residues with an end cap or a label only (N-terminal biotin on a linker: ado-ado).
[3] abbreviates: modified: phospho on T at position -1 from the C-terminal residue.

Changes are numbered by the printed parent chain.

SCRIB_1, Q14160, sequence (Q14160 718-814): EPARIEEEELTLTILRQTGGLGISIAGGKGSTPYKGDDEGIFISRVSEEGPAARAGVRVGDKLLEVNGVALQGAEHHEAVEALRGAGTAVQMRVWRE
DLG4_2, P78352, sequence (P78352 155-259): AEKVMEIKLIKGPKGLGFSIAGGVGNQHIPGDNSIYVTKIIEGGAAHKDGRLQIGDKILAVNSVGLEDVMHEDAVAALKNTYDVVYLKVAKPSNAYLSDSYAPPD
GRIP2_7, Q9C0E4, sequence (Q9C0E4 934-1023): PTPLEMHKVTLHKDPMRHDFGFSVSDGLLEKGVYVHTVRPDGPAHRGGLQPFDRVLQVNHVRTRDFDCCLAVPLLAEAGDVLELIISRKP
PDLIM1, O00151, sequence (O00151 1-87): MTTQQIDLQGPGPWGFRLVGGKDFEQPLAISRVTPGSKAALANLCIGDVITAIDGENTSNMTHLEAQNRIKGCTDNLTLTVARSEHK
LDB3, O75112, sequence (O75112 1-94): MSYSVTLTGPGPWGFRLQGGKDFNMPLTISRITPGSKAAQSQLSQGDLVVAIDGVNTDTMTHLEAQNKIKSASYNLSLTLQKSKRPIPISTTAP
FRMPD3, Q5JV73, sequence (Q5JV73 12-100): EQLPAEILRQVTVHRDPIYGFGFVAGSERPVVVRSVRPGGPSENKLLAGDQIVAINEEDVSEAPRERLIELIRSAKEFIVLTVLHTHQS
DLG1_2, Q12959, sequence (Q12959 314-412): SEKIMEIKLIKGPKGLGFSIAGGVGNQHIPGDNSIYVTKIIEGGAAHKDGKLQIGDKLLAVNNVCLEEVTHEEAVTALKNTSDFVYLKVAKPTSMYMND
GRASP, Q7Z6J2, sequence (Q7Z6J2 96-193): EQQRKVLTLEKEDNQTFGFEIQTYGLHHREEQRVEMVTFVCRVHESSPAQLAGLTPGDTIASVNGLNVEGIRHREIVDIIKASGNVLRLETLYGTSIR
PARD3_3, Q8TEW0, sequence (Q8TEW0 582-685): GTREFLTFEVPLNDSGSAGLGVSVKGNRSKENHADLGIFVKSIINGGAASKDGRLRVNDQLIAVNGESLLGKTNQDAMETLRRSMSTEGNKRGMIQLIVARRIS
MAGI2_2, Q86UL8, sequence (Q86UL8 410-522): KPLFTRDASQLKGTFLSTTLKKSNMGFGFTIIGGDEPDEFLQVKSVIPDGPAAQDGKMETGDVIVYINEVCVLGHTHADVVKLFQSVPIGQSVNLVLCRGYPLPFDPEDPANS

What is called pKd is the negative decadic logarithm of the Kd, by convention in mol/L. For the molecule RRVRKLPSTTL [RPS6KA1_-2P, Q15418], the negative-log Kd (pKd) result with TIAM2, Q8IVF5 (setting [1]) was “below the threshold”; with PDZD7_3, Q9H5P4 (setting [1]) it was 3.5; with MAGI2_2, Q86UL8 (setting [1]) it was “below the threshold”; with FRMPD3, Q5JV73 (setting [1]), “below the threshold”; with HTRA3, P83110 (setting [1]), “below the threshold”; with APBA1_1, Q02410 (setting [1]), “below the threshold”. In addition, the pKd entry is on record as “below the threshold” in the test with SCRIB_1, Q14160 (setting [1]); “below the threshold” in the test with CARD11, Q9BXL7 (setting [1]); “below the threshold” in the test with DFNB31_3, Q9P202 (setting [1]); “below the threshold” in the test with DLG4_2, P78352 (setting [1]); “below the threshold” with DFNB31_2, Q9P202 (setting [1]); “below the threshold” with DVL3, Q92997 (setting [1]). Moreover, the pKd entry with SNTA1, Q13424 (setting [1]) was “below the threshold”; with LIN7B, Q9HAP6 (setting [1]) it was “below the threshold”; with DFNB31_1, Q9P202 (setting [1]), “below the threshold”; with GRIP1_4, Q9Y3R0 (setting [1]) it was “below the threshold”; with LIN7A, O14910 (setting [1]), “below the threshold”; with GRASP, Q7Z6J2 (setting [1]) it was “below the threshold”. For the same molecule, the pKd entry with PTPN13_1, Q12923 (setting [1]) is “below the threshold”; with PDLIM1, O00151 (setting [1]), “below the threshold”; with DLG1_2, Q12959 (setting [1]) it was “below the threshold”; with LDB3, O75112 (setting [1]) it was 3.47; with PARD3_3, Q8TEW0 (setting [1]), “below the threshold”; in the test with GRIP2_7, Q9C0E4 (setting [1]) it was “below the threshold”.
For GQSVDLVFPV [AKIP1, Q9NQ31], the pKd result was “below the threshold” in the test with TIAM2, Q8IVF5 (setting [2]); “below the threshold” in the test with PDZD7_3, Q9H5P4 (setting [2]); “below the threshold” in the test with MAGI2_2, Q86UL8 (setting [2]); 3.68 with FRMPD3, Q5JV73 (setting [2]); “below the threshold” with HTRA3, P83110 (setting [2]); “below the threshold” in the test with APBA1_1, Q02410 (setting [2]). Also, the pKd result with SCRIB_1, Q14160 (setting [2]) was “below the threshold”; with CARD11, Q9BXL7 (setting [2]), 3.63; with DFNB31_3, Q9P202 (setting [2]), “below the threshold”; with DLG4_2, P78352 (setting [2]), “below the threshold”; in the test with DFNB31_2, Q9P202 (setting [2]), “below the threshold”; with DVL3, Q92997 (setting [2]) it was “below the threshold”. Also, the pKd result with SNTA1, Q13424 (setting [2]) is “below the threshold”; in the test with LIN7B, Q9HAP6 (setting [2]), “below the threshold”; with DFNB31_1, Q9P202 (setting [2]) it was “below the threshold”; with GRIP1_4, Q9Y3R0 (setting [2]) it was “below the threshold”; in the test with LIN7A, O14910 (setting [2]), “below the threshold”; in the test with GRASP, Q7Z6J2 (setting [2]), 3.48. Further, the pKd entry is “below the threshold” with PTPN13_1, Q12923 (setting [2]); “below the threshold” with PDLIM1, O00151 (setting [2]); “below the threshold” in the test with DLG1_2, Q12959 (setting [2]); “below the threshold” with LDB3, O75112 (setting [2]); 3.66 in the test with PARD3_3, Q8TEW0 (setting [2]); 4.08 with GRIP2_7, Q9C0E4 (setting [2]).
For SMLNRRTTPV [CACNG4, Q9UBN1], the pKd result with TIAM2, Q8IVF5 (setting [2]) is “below the threshold”; with PDZD7_3, Q9H5P4 (setting [2]) it was 4.07; with MAGI2_2, Q86UL8 (setting [2]), 5.03; with FRMPD3, Q5JV73 (setting [2]), “below the threshold”; with HTRA3, P83110 (setting [2]), “below the threshold”; with APBA1_1, Q02410 (setting [2]), “below the threshold”. Further, the pKd with SCRIB_1, Q14160 (setting [2]) is 3.56; in the test with CARD11, Q9BXL7 (setting [2]), “below the threshold”; with DFNB31_3, Q9P202 (setting [2]) it was “below the threshold”; in the test with DLG4_2, P78352 (setting [2]), 4.88; with DFNB31_2, Q9P202 (setting [2]), “below the threshold”; with DVL3, Q92997 (setting [2]), “below the threshold”. Also, the pKd was 3.86 in the test with SNTA1, Q13424 (setting [2]); “below the threshold” in the test with LIN7B, Q9HAP6 (setting [2]); 4 with DFNB31_1, Q9P202 (setting [2]); “below the threshold” with GRIP1_4, Q9Y3R0 (setting [2]); “below the threshold” with LIN7A, O14910 (setting [2]); 4.3 in the test with GRASP, Q7Z6J2 (setting [2]). The negative-log Kd (pKd) result was “below the threshold” with PTPN13_1, Q12923 (setting [2]); “below the threshold” with PDLIM1, O00151 (setting [2]); 4.98 in the test with DLG1_2, Q12959 (setting [2]); “below the threshold” with LDB3, O75112 (setting [2]); “below the threshold” with PARD3_3, Q8TEW0 (setting [2]); “below the threshold” with GRIP2_7, Q9C0E4 (setting [2]).
In the case of RRVRKLPSTTL [RPS6KA1_-1P, Q15418], the pKd with TIAM2, Q8IVF5 (setting [3]) was 3.41; in the test with PDZD7_3, Q9H5P4 (setting [3]) it was 4.91; with MAGI2_2, Q86UL8 (setting [3]) it was 3.92; in the test with FRMPD3, Q5JV73 (setting [3]), “below the threshold”; with HTRA3, P83110 (setting [3]), 3.34; with APBA1_1, Q02410 (setting [3]) it was 3.56. For the same molecule, the negative logarithm of the Kd (pKd) with SCRIB_1, Q14160 (setting [3]) was 4.02; with CARD11, Q9BXL7 (setting [3]) it was “below the threshold”; with DFNB31_3, Q9P202 (setting [3]), 3.78; with DLG4_2, P78352 (setting [3]), 3.85; with DFNB31_2, Q9P202 (setting [3]), “below the threshold”; with DVL3, Q92997 (setting [3]), “below the threshold”. Moreover, the pKd with SNTA1, Q13424 (setting [3]) is 3.85; with LIN7B, Q9HAP6 (setting [3]), 3.56; in the test with DFNB31_1, Q9P202 (setting [3]), 3.6; with GRIP1_4, Q9Y3R0 (setting [3]), 3.36; with LIN7A, O14910 (setting [3]), “below the threshold”; with GRASP, Q7Z6J2 (setting [3]), 3.8. The pKd with PTPN13_1, Q12923 (setting [3]) is 3.4; with PDLIM1, O00151 (setting [3]) it was 4; with DLG1_2, Q12959 (setting [3]) it was 3.83; in the test with LDB3, O75112 (setting [3]) it was 3.62; with PARD3_3, Q8TEW0 (setting [3]), 3.84; in the test with GRIP2_7, Q9C0E4 (setting [3]), “below the threshold”.

For the origin of these results see article PMC9482650, “Quantitative fragmentomics allow affinity mapping of interactomes” (Nature Communications, 2022).
